From publication PMC5866549
Values joined by “and” are separate entries in the source; they are usually repeats but may differ in a detail not shown here. Equal entries are not always repeated.

Molecular target: mucin (purified mucins)
Assay: AFM force spectroscopy

modal adhesion force: 105 pN
modal adhesion force (bimodal): 72 pN and 120 pN
Substance: SRRP_(53608)-BR, binding region of the serine-rich repeat protein from Lactobacillus reuteri ATCC 53608 (domain or fragment)
